{"source": "the DeepSol protein solubility set"}
{"experiment": "soluble on expression in E. coli; label from the status in PepcDB or PDB records"}
{"sequence": "MSLRAELNQGLIDFLKASPTPFHATASLARRLEAAGYRRLDERDAWHTETGGRYYVTRNDSSLIAIRLGRRSPLESGFRLVGAHTDSPCLRVKPNPEIARNGFLQLGVEVYGGALFAPWFDRDLSLAGRVTFRANGKLESRLVDFRKAIAVIPNLAIHLNRAANEGWPINAQNELPPIIAQLAPGEAADFRLLLDEQLLREHGITADVVLDYELSFYDTQSAAVVGLNDEFIAGARLDNLLSCHAGLEALLNAEGDENCILVCTDHEEVGSCSHCGADGPFLEQVLRRLLPEGDAFSRAIQRSLLVSADNAHGVHPNYADRHDANHGPALNGGPVIKINSNQRYATNSETAGFFRHLCQDSEVPVQSFVTRSDMGCGSTIGPITASQVGVRTVDIGLPTFAMHSIRELAGSHDLAHLVKVLGAFYASSELEGHHHHHH", "soluble on expression in E. coli": "soluble"}
{"sequence": "MAGDPMAYQQGKQGQNVEKESTRQQETKPIHVKDTTQETKDNGTRTDIAKHLVSVAEKNPDVKDATAVVLGGYAVVGIDVDDTLDRSKVETIKYSVAQALKNDRYGANAVVIADPDTVSRLREMSREISEGHPVTGILDELAAIVGRVLPEVPNDVIDNEDEPQTKQQNDQLNRKQQQEMEKEQNDQSDHHMKKNNNDLEHHHHHH", "soluble on expression in E. coli": "soluble"}
{"sequence": "MTSIQQRAELQRRIWQIANDVRGTVDGWDFKQYVLGALFYRFISENFAAHMEAGDDGIRYAELPDSVITPELKDDAIKTKGYFIYPSQLFANVVARANTNDSLNTDLAAIFTAIESSANGYPSEQDIKGLFADFDTTSNRLGNTVKDKNQRLAAVLKGVAELDFGPFDDAHIDLFGDAYEFLISNYAANAGKSGGEFFTPQHVSRLIARLALHGQKSVNKIYDPACGSGSLLLQAKKPFDERLIEDGFFGQESNHTTYNLARMNMFLHNINYDKFNIQLGNTLLEPHFADEKPFDAIVSNPPYSVKWIGSDDPTLINDERFAPAGVLAPKSKADFAFVLHALHYLSAKGRAAIVCFPGIFYRGGAEAKIRQYLVDNNYVETVIALAPNLFFGTTIAVNILVLSKHKPDTTTQFIDASALFKKETNNNVLLDEHIEQIMAVFASKEEVPHVAQSVPLERIAANNYNLSVSSYVEARDTREVVDIAQLNAELKTTVARIDELRKQIDAIVAEIEGEEDEA", "soluble on expression in E. coli": "soluble"}
{"sequence": "MASLSRALRVAAAHPRQSPTRGMGPCNLSSAAGPTAEKSVPYQRTLKEGQGTSVVAQGPSRPLPSTANVVVIGGGSLGCQTLYHLAKLGMSGAVLLERERLTSGTTWHTAGLLWQLRPSDVEVELLAHTRRVVSRELEEETGLHTGWIQNGGLFIASNRQRLDEYKRLMSLGKAYGVESHVLSPAETKTLYPLMNVDDLYGTLYVPHDGTMDPAGTCTTLARAASARGAQVIENCPVTGIRVWTDDFGVRRVAGVETQHGSIQTPCVVNCAGVWASAVGRMAGVKVPLVAMHHAYVVTERIEGIQNMPNVRDHDASVYLRLQGDALSVGGYEANPIFWEEVSDKFAFGLFDLDWEVFTQHIEGAINRVPVLEKTGIKSTVCGPESFTPDHKPLMGEAPELRGFFLGCGFNSAGMMLGGGCGQELAHWIIHGRPEKDMHGYDIRRFHHSLTDHPRWIRERSHESYAKNYSVVFPHDEPLAGRNMRRDPLHEELLGQGCVFQERHGWERPGWFHPRGPAPVLEYDYYGAYGSRAHEDYAYRRLLADEYTFAFPPHHDTIKKECLACRGAAAVFDMSYFGKFYLVGLDARKAADWLFSADVSRPPGSTVYTCMLNHRGGTESDLTVSRLAPSHQASPLAPAFEGDGYYLAMGGAVAQHNWSHITTVLQDQKSQCQLIDSSEDLGMISIQGPASRAILQEVLDADLSNEAFPFSTHKLLRAAGHLVRAMRLSFVGELGWELHIPKASCVPVYRAVMAAGAKHGLINAGYRAIDSLSIEKGYRHWHADLRPDDSPLEAGLAFTCKLKSPVPFLGREALEQQRAAGLRRRLVCFTMEDKVPMFGLEAIWRNGQVVGHVRRADFGFAIDKTIAYGYIHDPSGGPVSLDFVKSGDYALERMGVTYGAQAHLKSPFDPNNKRVKGIY", "soluble on expression in E. coli": "not soluble"}
{"sequence": "DPDIQSTVEAMLLDRVDALPPKVSMAVLVMDNDSLEVKAYAGSADFTDDSRYAHVDMVRGVRSPGSTLKPFLYALALDEGLIHSESLLLDAPLSFGGYAPGNFQAAFAGPVSVAQALQRSLNVPAVDLLDRVGPARFASVMLAGGVHLRMPAGAVPNLSLILGGGGTTLEELVGAYRALARGGLSGRPRLRASQPRIEARLMSPGAAWIVRDILELGGHPDRPLFQGAAAGRQLAWKTGTSFGFRDAWAVGVTDRYTIGAWVGRPDGTPNPGFFGANVAAPLLQDIVAALPAGAPVPRT", "soluble on expression in E. coli": "not soluble"}
{"sequence": "MGSDKIHHHHHHLSGCVSLPPPAPIVHQPMSARAALPAPPPGNGAVYQDANQYHSLFIDRRARQIGDTLVILLTERTNASKRSNSSANKNGDVSFGIPPIVFGVPITKKIDLGASSSNDFAGKGEAASANNFSGTITVTVVDVLPNSYLVVSGEKQLAMTQGSEYIRFSGVVRPETVISNTVSSIQVADARIEYKANGYIDEAQTMGWLSRFFLTVAPF", "soluble on expression in E. coli": "not soluble"}
{"sequence": "MSLDKSIPVPEPSRMITGIKVHKISDVITYQGMISLTYDNNKRLTRIYSSSPLAAVNYTYKENSEVSYTYSTENSPLVEISTSLENGRSYVCKFSNRENPVTYSYDNEGYLKSCNNNGTVLEYNWESGNLSSITTTPRGTYNSDYRVSNIANDYSLDLNTLAQWIDDRENYTTVMNTFGQMAEILGKRSANILEDTYYIYDYSFRQDGRLKDMTLMGGSENIGYSFRFSYADDTEVSEGHHHHHH", "soluble on expression in E. coli": "soluble"}
{"sequence": "MSELFKKLMDQIEMPLEIKNSSVFSSADIIEVKVHSLSRLWEFHFSFPELLPIEVYRELQTRLVNSFEKADIKATFDIRAETIDFSDDLLQDYYQQAFCEPLCNSASFKSSFSQLKVHYNGSQMIISAPQFVNNNHFRQNHLPRLEQQFSLFGF", "soluble on expression in E. coli": "not soluble"}
{"sequence": "MDNDGINADPMELEKFSQLAHHWWDPNSEFKPLHEINPLRLNYIDEIIGGLSEKTVIDVGCGGGILSESMAARGASVTGIDLSDKALKVAKLHLLESGNQVDYRKITVEALATERPRYYDVVTCMEMLEHVPDPASVIQSCARLVKSGGWVFFSTLNRNPKSYLYAIIGAEYILRLLPRGTHEYAKFIKPSELAHMARSAGLMESGIVGMTYNPITKVYALEADTSVNYIMAFRA", "soluble on expression in E. coli": "not soluble"}
{"sequence": "MTSVNKKRNARKNQEPTSNMTIETEDGTQADRPKKRPAKKRSKVVRRAAQYGDVNEPILRDFVKATIQTGVKQLSTEFLNLKMETQPCNKPKTGHEGHPEKNRYKDVYCIDDTRVVLKWPEDSPSDYIHANWVKINGANKFICTQGPTEKTVDDFYRLIWQEKAPCVVMLCNIMECGKKKCEQYWPETADGQMILMDGKLTVKIAEPAKEVEQNILLMKITVIDDKGTSHNFEHWQWKAWPDRGVPELPMALKTASPIVVHCSAGIGRTGSIVGLEIALVKFCAGEKVVLKDIVKEIRNQRHGSVQTDAQYLFMHRVLLALAENRKITSPELSAFVAEYDKVIATKNG", "soluble on expression in E. coli": "not soluble"}
{"sequence": "MRVVVLMGGRSSEREISLKTGKAVAKALRELGHEVYELDLDKELPCKLLEIKPDKVFIALHGRYGEDGTVQGLLEILDIPYTGSDTIASAVSIDKDFTKRIVKSLGINTPDWETFISEGDVLNTEWNKFPAVVKPVREGSSVGLKIVESLEELKEYALDLLKKTERVMVEEFVEGRDMTVGILKGEALPVVEIIPKKGVYDYECKYTKGMSEYRILKDEKLSKKLQEISLKISKFLSLKDFARIDFRVTKEGKIFFLEVNTIPGMTELSLLPMAAKEKGMDFKKLISIIIT", "soluble on expression in E. coli": "soluble"}
{"sequence": "MGSDKIHHHHHHMTYIALGMAAIGRPHYINIKTIDSPKDLTKAELHAHATAVLDAAYAMGIRHIDTAPGYGIAEEILIDWLRRSGHEDMTVSTKWGYTYTANFEKNPLQHEVKEHSLHVLQQQWLYSRQLLPPLNMYQIHSATSDSGVLNNQGVLDKLFELKEQFGIEIGLTTSGLTQNATIQQALKITNQGKPLFTIFQVTYNVFEQSIADSVALLKNQGARIIIKEGLANGRIFTCADFPQYAPAYALLERLAGKYHVGVDAVALRFCIDALRPLYVLSGAATIVQLKENLLAETFTLQSEELEELKSIHVASEAYWNERKQLKWN", "soluble on expression in E. coli": "not soluble"}
{"sequence": "SSHGIGDALGSDWPGREPRATDNRGQYLKGESWVSGRPGHPKLREVGFLRGEPPSAGPKGLGTWSELSHRYFELGQLPYAYPYYKVLPEGELRCVSLDRFNPGLSEETVEDEKTLKFFRWSADSRGVTGSAIFQISKSLMP", "soluble on expression in E. coli": "soluble"}
{"sequence": "DSGYSRETRALLFRAYRHDPTFAYLFNAEREGYEQRVLATIRQLVKQHFLQNQPALGLFLEDRLVGVALIAPPLRRLGVTESWAWRLRMVMDTGLGCTQRYLAYYNAVLACLPSETVHVLPLIGLDPEFQGQKMGQDLSEQLLAALHDWCAVDENSQGIVVDTGNPRYLEFYKRQGYEEIGEIAVGPV", "soluble on expression in E. coli": "not soluble"}
{"sequence": "MPKKAGATSKGKNQTKEPETAPPAAGPVATDPKGFVTIAIHAKPGSRQNAVTDLSTEAVGVAIAAPPSEGEANAELCRYLSKVLDLRKSDVVLDKGGKSREKVVKLLASTTPEEVLEKLKTEAEKK", "soluble on expression in E. coli": "soluble"}
{"sequence": "MGSDKIHHHHHHMQPTYLPWMGYFDLIDIADKFVFLDNVQLERSGWQVRNRIRSSQGELMLRVAIATPKRFDETLIHQTQFVTGHPWRKKHLKSIQMNYQKAPYFAQVYPLLESLYQKDETSLSQFNISVINALCTFMGINTPRMLASELVDIEGIKDARLTSICKHLDADQYLSPLGAMAYIEQESSGGDLGENGIDVFYHQFVHPQYTQVYDGFISHLSIIDALFNLGPQNTVTLIRQFRQAPINYTSLPR", "soluble on expression in E. coli": "not soluble"}
{"sequence": "MGSDKIHHHHHHMGNSVLKMMIDAGPIMRTVSLPRGRHSLHTMPTSTGYEVRSDATYDWDGRKRGQTPFTVLQHTISGAGNLRYENSTYRVTPGQTLLVLVPHNHRYWLEPGGRWEFFWISMNGEEALRIHNAILTAMGPIFNLNQQTVEHLADCSQRLIAGGAETPGRASAIAYEAAMALYDDVFGSHPTLSAEYRTMQHVIDHISANLDQSLSVEQLAAVSGLSRAHFSRVFAASEGMPPAEFVLHKRLKRAVKLLTKGSHLSVKEISTMCGFEEPNYFSKVFRRHFGASPTEFRTTGMYSSILQGGVEAETKPARFHRPDVNE", "soluble on expression in E. coli": "not soluble"}
{"sequence": "MPSEKEDDVMKNVTFAEGKKFGDWKIGKTIDEGGFGKVYIATSISDPKKVAALKAESNEIEGGSAIKLEAMILNKLNANGPVPHIPVVHLCAKRKLYCYMVMTLLGRNLRKLKSTNLVVNNGFSRGTWSRIGIQCLYALKYVHDNGFIHRDVKPQNFLLGNETDSERARIVHILDFGLARPFAVFHARENKWIARRARGTAEFRGTLRYTSPNVHLRKEQGRVDDVWSLLYVIIELNGGKALPWQTDSQRERVEQMKLNLPAKVVMSNMPACMDKVMPHLASLDYYQRPDYHMIFKCFWQVMENEKITPSSKYDWEKDEPDKSVPPASWENPAGPFFQSDPLGINAPPTPAEAALTEKSGKKHGKK", "soluble on expression in E. coli": "soluble"}
{"sequence": "MSLGRLEKRFSFAFCSYWRPFRRPLRTHHGLWSVREGILIRLTDRETGCQGYGEIAPIPWFGSETLEQALAFCRQLPPLLSEAYILGIPEALPACRFGLEGAWLACRDPDWLNKDLSLLSFCELLGETLPPESYKDSYKDSVPLTRSVYKLKVGRDPMQQELEKLEQWLERLPPGSRLRLDANGGLSLAEAHRWLMVCDRLNQDSPGKIEFLEQPLPPDQHSHLVELSRQYQTPIALDESVACLEQLQAVHRSGWTGILVVKPSLVGSCIALREYLSRHPGLDLVFSSALETAIGAWHGLAWAGSLQAKTASPRAVGWGVGEFFQEGDPLTLTQLSAQERAALMQAVWERYSREGHHHHHH", "soluble on expression in E. coli": "soluble"}
{"sequence": "HHHHHHGSMTIKPLRKAVFPVAGLGTRFLPATKAMPKEMLPVVDRPLIQYAVDEAVEAGIEQMIFVTGRGKSALEDHFDIAYELEATMAARGKSLDVLDGTRLKPGNIAYVRQQEPMGLGHAVWCARDIVGDEPFAVLLPDDFMFGQPGCLKQMVDAYNKVGGNLICAEEVPDDQTHRYGIITPGTQDGVLTEVKGLVEKPAPGTAPSNLSVIGRYILQPEVMRILENQGKGAGGEIQLTDAMQRMIGDQPFHGVTFQGTRYDCGDKAGFIQANLAVALSRPDLEPAVRAFAVKALG", "soluble on expression in E. coli": "soluble"}
